Patent US6403561

Test system: non-sulphated CCK-8 (Asp-Tyr-Met-Gly-Trp-Met-Asp-Phe-NH2)

Sequence of membrane-bound tripeptidylpeptidase II purified from rat brain (cerebral cortex) membranes (chain, as listed by the source): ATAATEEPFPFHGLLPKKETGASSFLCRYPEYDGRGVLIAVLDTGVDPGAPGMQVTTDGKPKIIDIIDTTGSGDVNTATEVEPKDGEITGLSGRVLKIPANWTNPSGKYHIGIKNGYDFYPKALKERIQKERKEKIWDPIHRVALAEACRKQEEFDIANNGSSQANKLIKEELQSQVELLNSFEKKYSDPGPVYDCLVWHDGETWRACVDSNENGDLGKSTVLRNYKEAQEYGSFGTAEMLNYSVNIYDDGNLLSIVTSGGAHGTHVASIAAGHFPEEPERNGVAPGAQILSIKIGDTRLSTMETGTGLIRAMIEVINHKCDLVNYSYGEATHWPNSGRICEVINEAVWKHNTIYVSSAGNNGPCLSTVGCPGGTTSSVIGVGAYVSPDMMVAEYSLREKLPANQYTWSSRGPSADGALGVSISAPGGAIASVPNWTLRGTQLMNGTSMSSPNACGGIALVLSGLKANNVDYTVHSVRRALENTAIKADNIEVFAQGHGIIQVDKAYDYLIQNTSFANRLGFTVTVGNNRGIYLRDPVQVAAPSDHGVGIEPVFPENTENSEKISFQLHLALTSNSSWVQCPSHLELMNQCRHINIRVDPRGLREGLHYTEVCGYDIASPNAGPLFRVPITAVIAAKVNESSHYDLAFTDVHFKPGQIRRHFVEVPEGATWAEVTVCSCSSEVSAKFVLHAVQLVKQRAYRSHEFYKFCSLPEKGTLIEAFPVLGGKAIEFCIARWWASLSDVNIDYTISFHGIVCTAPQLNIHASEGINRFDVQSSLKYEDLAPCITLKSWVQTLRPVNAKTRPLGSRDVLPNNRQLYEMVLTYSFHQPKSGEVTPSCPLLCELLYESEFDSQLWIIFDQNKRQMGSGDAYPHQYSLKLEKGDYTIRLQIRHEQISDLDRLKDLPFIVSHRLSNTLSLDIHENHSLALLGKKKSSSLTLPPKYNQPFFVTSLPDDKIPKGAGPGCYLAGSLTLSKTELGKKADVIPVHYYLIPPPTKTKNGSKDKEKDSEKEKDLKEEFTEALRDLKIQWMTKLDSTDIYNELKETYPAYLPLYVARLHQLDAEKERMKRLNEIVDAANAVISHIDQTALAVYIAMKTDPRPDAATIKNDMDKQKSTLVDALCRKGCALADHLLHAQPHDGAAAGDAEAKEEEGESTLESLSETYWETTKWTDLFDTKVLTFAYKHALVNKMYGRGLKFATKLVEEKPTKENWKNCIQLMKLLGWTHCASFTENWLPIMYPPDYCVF

With “membrane-bound tripeptidylpeptidase II purified from rat brain (cerebral cortex) membranes” the “hydrolysis of CCK-8 (products CCK-5 and Gly-Trp-Met measured fluorimetrically after HPLC)” value was “only one enzyme is responsible for the two cleavages of the molecule CCK-8”.
